Measurements published in the Human Domainome abundance scans (Beltran et al. 2025).
± gives the uncertainty stated by the source.

B1: POU domain, class 3, transcription factor 1, residues 247 to 324; numbered along this chain, Q03052 (parent)
chain: EDAPSSDDLEQFAKQFKQRRIKLGFTQADVGLALGTLYGNVFSQTTICRFEALQLSFKNMCKLKPLLNKWLEETDSSS

Variants of: B1
Experiment: abundance fitness (aPCA) (normalised: wild type 0, dead -1); higher = more abundant; growth selection in yeast, the domain comes from the species named
Details: Homo sapiens

| Variant | abundance fitness |
| --- | --- |
| EDAPHSDDLEQFAKQFKQRRIKLGFTQADVGLALGTLYGNVFSQTTICRFEALQLSFKNMCKLKPLLNKWLEETDSSS | 0.283 ± 0.1 |
| EDAPASDDLEQFAKQFKQRRIKLGFTQADVGLALGTLYGNVFSQTTICRFEALQLSFKNMCKLKPLLNKWLEETDSSS | 0.048 ± 0.062 |
| EDAPMSDDLEQFAKQFKQRRIKLGFTQADVGLALGTLYGNVFSQTTICRFEALQLSFKNMCKLKPLLNKWLEETDSSS | 0.141 ± 0.078 |
| EDAPDSDDLEQFAKQFKQRRIKLGFTQADVGLALGTLYGNVFSQTTICRFEALQLSFKNMCKLKPLLNKWLEETDSSS | 0.388 ± 0.087 |
| EDAPNSDDLEQFAKQFKQRRIKLGFTQADVGLALGTLYGNVFSQTTICRFEALQLSFKNMCKLKPLLNKWLEETDSSS | 0.119 ± 0.13 |
| EDAPLSDDLEQFAKQFKQRRIKLGFTQADVGLALGTLYGNVFSQTTICRFEALQLSFKNMCKLKPLLNKWLEETDSSS | 0.129 ± 0.051 |
| EDAPKSDDLEQFAKQFKQRRIKLGFTQADVGLALGTLYGNVFSQTTICRFEALQLSFKNMCKLKPLLNKWLEETDSSS | 0.07 ± 0.074 |
| EDAPISDDLEQFAKQFKQRRIKLGFTQADVGLALGTLYGNVFSQTTICRFEALQLSFKNMCKLKPLLNKWLEETDSSS | -0.234 ± 0.17 |
| EDAPESDDLEQFAKQFKQRRIKLGFTQADVGLALGTLYGNVFSQTTICRFEALQLSFKNMCKLKPLLNKWLEETDSSS | 0.111 ± 0.071 |
| EDAPCSDDLEQFAKQFKQRRIKLGFTQADVGLALGTLYGNVFSQTTICRFEALQLSFKNMCKLKPLLNKWLEETDSSS | 0.113 ± 0.093 |
| EDAPFSDDLEQFAKQFKQRRIKLGFTQADVGLALGTLYGNVFSQTTICRFEALQLSFKNMCKLKPLLNKWLEETDSSS | -0.143 ± 0.17 |
| EDTPSSDDLEQFAKQFKQRRIKLGFTQADVGLALGTLYGNVFSQTTICRFEALQLSFKNMCKLKPLLNKWLEETDSSS | 0.238 ± 0.053 |
| EDRPSSDDLEQFAKQFKQRRIKLGFTQADVGLALGTLYGNVFSQTTICRFEALQLSFKNMCKLKPLLNKWLEETDSSS | 0.222 ± 0.049 |
| EDQPSSDDLEQFAKQFKQRRIKLGFTQADVGLALGTLYGNVFSQTTICRFEALQLSFKNMCKLKPLLNKWLEETDSSS | 0.327 ± 0.08 |
| EDVPSSDDLEQFAKQFKQRRIKLGFTQADVGLALGTLYGNVFSQTTICRFEALQLSFKNMCKLKPLLNKWLEETDSSS | -0.08 ± 0.07 |
| EDYPSSDDLEQFAKQFKQRRIKLGFTQADVGLALGTLYGNVFSQTTICRFEALQLSFKNMCKLKPLLNKWLEETDSSS | -0.033 ± 0.28 |
| EDSPSSDDLEQFAKQFKQRRIKLGFTQADVGLALGTLYGNVFSQTTICRFEALQLSFKNMCKLKPLLNKWLEETDSSS | 0.238 ± 0.057 |
| EDWPSSDDLEQFAKQFKQRRIKLGFTQADVGLALGTLYGNVFSQTTICRFEALQLSFKNMCKLKPLLNKWLEETDSSS | 0.098 ± 0.062 |

| Variant | abundance fitness |
| --- | --- |
| EDAQSSDDLEQFAKQFKQRRIKLGFTQADVGLALGTLYGNVFSQTTICRFEALQLSFKNMCKLKPLLNKWLEETDSSS | -0.24 ± 0.16 |
| EDATSSDDLEQFAKQFKQRRIKLGFTQADVGLALGTLYGNVFSQTTICRFEALQLSFKNMCKLKPLLNKWLEETDSSS | 0.019 ± 0.083 |
| EDAWSSDDLEQFAKQFKQRRIKLGFTQADVGLALGTLYGNVFSQTTICRFEALQLSFKNMCKLKPLLNKWLEETDSSS | 0.066 ± 0.062 |
| EDAKSSDDLEQFAKQFKQRRIKLGFTQADVGLALGTLYGNVFSQTTICRFEALQLSFKNMCKLKPLLNKWLEETDSSS | -0.114 ± 0.091 |
| EDADSSDDLEQFAKQFKQRRIKLGFTQADVGLALGTLYGNVFSQTTICRFEALQLSFKNMCKLKPLLNKWLEETDSSS | -0.134 ± 0.12 |
| EDARSSDDLEQFAKQFKQRRIKLGFTQADVGLALGTLYGNVFSQTTICRFEALQLSFKNMCKLKPLLNKWLEETDSSS | -0.229 ± 0.056 |
| EDAGSSDDLEQFAKQFKQRRIKLGFTQADVGLALGTLYGNVFSQTTICRFEALQLSFKNMCKLKPLLNKWLEETDSSS | -0.098 ± 0.052 |
| EDAMSSDDLEQFAKQFKQRRIKLGFTQADVGLALGTLYGNVFSQTTICRFEALQLSFKNMCKLKPLLNKWLEETDSSS | 0.032 ± 0.081 |
| EDANSSDDLEQFAKQFKQRRIKLGFTQADVGLALGTLYGNVFSQTTICRFEALQLSFKNMCKLKPLLNKWLEETDSSS | -0.403 ± 0.23 |
| EDAISSDDLEQFAKQFKQRRIKLGFTQADVGLALGTLYGNVFSQTTICRFEALQLSFKNMCKLKPLLNKWLEETDSSS | 0.13 ± 0.16 |
| EDAFSSDDLEQFAKQFKQRRIKLGFTQADVGLALGTLYGNVFSQTTICRFEALQLSFKNMCKLKPLLNKWLEETDSSS | -0.366 ± 0.2 |
| EDALSSDDLEQFAKQFKQRRIKLGFTQADVGLALGTLYGNVFSQTTICRFEALQLSFKNMCKLKPLLNKWLEETDSSS | -0.031 ± 0.061 |
| EDAYSSDDLEQFAKQFKQRRIKLGFTQADVGLALGTLYGNVFSQTTICRFEALQLSFKNMCKLKPLLNKWLEETDSSS | 0.169 ± 0.26 |
| EDACSSDDLEQFAKQFKQRRIKLGFTQADVGLALGTLYGNVFSQTTICRFEALQLSFKNMCKLKPLLNKWLEETDSSS | 0.126 ± 0.099 |
| EDAASSDDLEQFAKQFKQRRIKLGFTQADVGLALGTLYGNVFSQTTICRFEALQLSFKNMCKLKPLLNKWLEETDSSS | 0.008 ± 0.067 |
| EDAHSSDDLEQFAKQFKQRRIKLGFTQADVGLALGTLYGNVFSQTTICRFEALQLSFKNMCKLKPLLNKWLEETDSSS | 0.002 ± 0.22 |
| EDAESSDDLEQFAKQFKQRRIKLGFTQADVGLALGTLYGNVFSQTTICRFEALQLSFKNMCKLKPLLNKWLEETDSSS | -0.043 ± 0.079 |
